T1: TIM-1 antigen (Homo sapiens, UniProt Q96D42, DEL158-162/L179P)
T1 construct: V5; His; made in house; host or cells: baculovirus expression system (pMelV5His vector / pBlueBac)
T1 sequence (Q96D42 with tags, fused parts or gaps DEL158-162/L179P): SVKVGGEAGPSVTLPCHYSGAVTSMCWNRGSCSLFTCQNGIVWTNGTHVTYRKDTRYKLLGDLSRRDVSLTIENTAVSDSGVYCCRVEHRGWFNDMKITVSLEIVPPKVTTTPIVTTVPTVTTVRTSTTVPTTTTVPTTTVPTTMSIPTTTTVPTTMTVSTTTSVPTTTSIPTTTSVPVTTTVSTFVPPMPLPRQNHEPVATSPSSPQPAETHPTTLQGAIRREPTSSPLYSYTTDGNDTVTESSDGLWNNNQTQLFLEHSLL


Target: T1, TIM-1 antigen
Assay: Epitope binning (antigen binding competition, Luminex)
Conditions: Table 9
Procedure: Certain antibodies, described herein were “binned” in accordance with the protocol described in U.S. Patent Application Publication No. 20030157730, published on Aug. 21, 2003, entitled “Antibody Categorization Based on Binding Characteristics.”
MxhIgG conjugated beads were prepared for coupling to primary antibody. The volume of supernatant needed was calculated using the following formula: (n+10)×50 μL (where n=total number of samples on plate). Where the concentration was known, 0.5 μg/mL was used. Bead stock was gently vortexed, then diluted in supernatant to a concentration of 2500 of each bead per well or 0.5×10^5/mL and incubated on a shaker in the dark at room temperature overnight, or 2 hours if at a known concentration of 0.5 μg/mL. Following aspiration, 50 μL of each bead was added to each well of a filter plate, then washed once by adding 100 μL/well wash buffer and aspirating. Antigen and controls were added to the filter plate 50 μL/well then covered and allowed to incubate in the dark for 1 hour on shaker. Following a wash step, a secondary unknown antibody was added at 50 μL/well using the same dilution (or concentration if known) as used for the primary antibody. The plates were then incubated in the dark for 2 hours at room temperature on shaker followed by a wash step. Next, 50 μL/well biotinylated mxhIgG diluted 1:500 was added and allowed to incubate in the dark for 1 hour on shaker at room temperature. Following a wash step, 50 μL/well Streptavidin-PE was added at 1:1000 and allowed to incubate in the dark for 15 minutes on shaker at room temperature. Following a wash step, each well was resuspended in 80 μL blocking buffer and read using a Luminex system.

Row | Bin | Molecule
1 | 1 | mAb 2.59: fully human IgG4 kappa anti-TIM-1 monoclonal antibody; heavy chain SEQ ID NO: 34, light chain SEQ ID NO: 36 (antibody, listed as Homo Sapiens, V domains shown) VH: NNNNNQSGPRLVKPSQTLSLTCTVSGGSISSDGYYWSWIRQHPGKGLEWIGYIYYSGSTFYNPSLKSRVAISVDTSKNQFSLKLSSVTAADTAVYYCARESPHSSNWYSGFDCWGQGTLVTVSSA VL: NNNNTQSPDFQSVTPKEKVTITCRASQSIGSRLHWYQQKPDQSPKLLIKYASQSFSGVPSRFSGSGSGTDFTLTINSLEAEDAATYYCHQSSNLPFTFGPGTKVDIKR
2 | 4 | mAb 2.61: fully human IgG4 kappa anti-TIM-1 monoclonal antibody; heavy chain SEQ ID NO: 38, light chain SEQ ID NO: 40 (antibody, listed as Homo Sapiens, V domains shown) VH: QVQLVEAGGGVVQPGRSLRLSCAASGFTFRSYGMHWVRQAPGKGLKWVAVIWYDGSNKYYTDSVKGRFTISRDNSKNTLYLQMNSLRAEDTAVYYCVRDYYDNSRHHWGFDYWGQGTLVTVSSA VL: DIQMTQSPSSRCASVGDRVTITCRASQGIRNDLAWYQQKPGKAPKRLIYAASSLQSGVPSRFSGSRSGTEFTLTISSLQPEDFAAYYCLQHNSYPPSFGQGTKLEIKR
3 | 4 | mAb 1.37: fully human IgG2 kappa anti-TIM-1 monoclonal antibody; heavy chain SEQ ID NO: 6, light chain SEQ ID NO: 8 (antibody, listed as Homo Sapiens, V domains shown) VH: EVQLVESGGGLVQPGGSLRLSCAASGFTFTNYWMSWVRQAPGKGLEWVANIQQDGSEKYYVDSVRGRFTISRDNAKNSLYLQMNSLRAEDSAVYYCARWDYWGQGTLVTVSSA VL: DIVMTQTPLSSTVILGQPASISCRSSQSLVHSDGNTYLNWLQQRPGQPPRLLIYMISNRFSGVPDRFSGSGAGTDFTLKISRVEAEDVGVYYCMQATESPQTFGQGTKVEIKR
4 | 4 | mAb 2.76: fully human IgG4 kappa anti-TIM-1 monoclonal antibody; heavy chain SEQ ID NO: 46, light chain SEQ ID NO: 48 (antibody, listed as Homo Sapiens, V domains shown) VH: NNNNEQSGGGVVQPGRSLRLSCAASGFTFSSYGMYWVRQAPGKGLEWVAVIWYDGSNKYYADSVKGRFTISRDNSKNTLYLQMNSLRAEDTAVYYCARDFYDSSRYHYGMDVWGQGTTVTVSSA VL: NNNNTQCPLSLPVTPGEPASISCRSSQSLLDSDDGNTYLDWYLQKPGQSPQLLIYTVSYRASGVPDRFSGSGSGTDFTLKISRVEAEDVGVYYCMQRIEFPITFGQGTRLEIKR
5 | 6 | mAb 2.70: fully human IgG4 kappa anti-TIM-1 monoclonal antibody; heavy chain SEQ ID NO: 42, light chain SEQ ID NO: 44 (antibody, listed as Homo Sapiens, V domains shown) VH: QVQLVESGGGVVQPGRSLRLSCAASGFIFSRYGMHWVRQAPGKGLKWVAVIWYDGSNKLYADSVKGRFTISRDNSKNTLYLQMNSLRAEDTAVYYCARDYYDNSRHHWGFDYWGQGTLVTVSSA VL: DIVMTQTPLSLPVTPGEPASISCRSSRSLLDSDDGNTYLDWYLQKPGQSPQLLIYTLSYRASGVPDRFSGSGSGTDFTLKISRVEAEDVGVYYCMQRVEFPITFGQGTRLEIKR
